Test results as given in patent US20200123260A1.

Legend:
[1] = target: hTrkC in the SHC1 recruitment assay (U2OS, Discoverx Pathhunter) (human) (UniProt Q16288); experiment: cell-based or functional assay
[2] = target: hTrkB-a isoform fused to a small peptide epitope, in U2OS cells (Discoverx Pathhunter) (human) (UniProt Q16620); experiment: cell-based or functional assay
[3] = target: hTrkA in the SHC1 recruitment assay (U2OS, Discoverx Pathhunter) (human) (UniProt P04629); experiment: cell-based or functional assay
[4] = target: human TrkC (open reading frame from NM_001012338.1) in HEK-293 cells (human) (UniProt Q16288); experiment: cell-based or functional assay
[5] = target: TrkB, Dog (Canis familiaris, XM_851329) on 293 cells (dog (Canis familiaris)); experiment: cell-based ELISA on transiently transfected HEK293 cells
[6] = target: TrkB, Dog (Canis familiaris, XM_851329) on 293 cells (dog (Canis familiaris)); experiment: cell-based ELISA on transfected 293 cells

hTrkB-a isoform fused to a small peptide epitope, in U2OS cells (Discoverx Pathhunter) (human), sequence (Q16620 32-822): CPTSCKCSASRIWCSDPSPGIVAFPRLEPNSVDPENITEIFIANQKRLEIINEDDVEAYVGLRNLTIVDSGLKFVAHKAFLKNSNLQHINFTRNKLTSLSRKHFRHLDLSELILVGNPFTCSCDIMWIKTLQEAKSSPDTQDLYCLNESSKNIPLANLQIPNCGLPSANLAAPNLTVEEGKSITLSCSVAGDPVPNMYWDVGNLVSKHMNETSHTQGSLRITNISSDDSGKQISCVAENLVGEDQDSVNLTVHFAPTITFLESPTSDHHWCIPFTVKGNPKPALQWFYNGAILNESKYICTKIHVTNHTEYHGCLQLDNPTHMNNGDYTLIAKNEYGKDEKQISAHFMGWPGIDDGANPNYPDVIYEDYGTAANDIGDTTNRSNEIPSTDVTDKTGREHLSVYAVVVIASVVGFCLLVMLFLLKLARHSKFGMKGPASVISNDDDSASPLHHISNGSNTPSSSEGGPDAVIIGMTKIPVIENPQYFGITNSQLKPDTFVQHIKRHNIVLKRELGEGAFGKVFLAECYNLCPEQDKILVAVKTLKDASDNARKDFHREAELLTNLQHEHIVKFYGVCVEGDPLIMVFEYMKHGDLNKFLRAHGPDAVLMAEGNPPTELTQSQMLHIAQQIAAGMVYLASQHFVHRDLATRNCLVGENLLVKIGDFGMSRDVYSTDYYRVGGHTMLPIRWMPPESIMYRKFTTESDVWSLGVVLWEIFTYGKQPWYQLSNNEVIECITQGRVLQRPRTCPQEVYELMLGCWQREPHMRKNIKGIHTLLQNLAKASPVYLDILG
hTrkC in the SHC1 recruitment assay (U2OS, Discoverx Pathhunter) (human), sequence (Q16288 32-839): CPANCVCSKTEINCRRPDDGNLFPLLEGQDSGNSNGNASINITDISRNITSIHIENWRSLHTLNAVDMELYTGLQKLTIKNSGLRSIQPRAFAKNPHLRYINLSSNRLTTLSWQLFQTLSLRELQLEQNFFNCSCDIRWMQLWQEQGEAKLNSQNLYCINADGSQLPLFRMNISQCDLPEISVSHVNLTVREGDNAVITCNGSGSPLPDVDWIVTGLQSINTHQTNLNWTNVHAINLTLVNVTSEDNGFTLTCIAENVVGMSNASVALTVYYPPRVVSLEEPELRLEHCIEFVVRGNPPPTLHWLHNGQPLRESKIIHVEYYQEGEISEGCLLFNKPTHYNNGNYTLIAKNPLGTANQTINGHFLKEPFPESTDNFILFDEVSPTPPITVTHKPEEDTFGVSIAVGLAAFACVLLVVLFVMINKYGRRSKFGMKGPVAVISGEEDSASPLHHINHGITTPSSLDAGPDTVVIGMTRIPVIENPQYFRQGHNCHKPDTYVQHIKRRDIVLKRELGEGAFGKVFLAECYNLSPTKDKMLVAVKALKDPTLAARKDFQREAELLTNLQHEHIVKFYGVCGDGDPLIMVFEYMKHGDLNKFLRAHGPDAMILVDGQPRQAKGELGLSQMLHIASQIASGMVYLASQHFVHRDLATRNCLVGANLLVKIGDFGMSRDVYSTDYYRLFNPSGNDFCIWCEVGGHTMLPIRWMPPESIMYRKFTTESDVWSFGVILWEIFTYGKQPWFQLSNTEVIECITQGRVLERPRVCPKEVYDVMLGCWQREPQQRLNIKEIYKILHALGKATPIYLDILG
hTrkA in the SHC1 recruitment assay (U2OS, Discoverx Pathhunter) (human), sequence (P04629 33-796): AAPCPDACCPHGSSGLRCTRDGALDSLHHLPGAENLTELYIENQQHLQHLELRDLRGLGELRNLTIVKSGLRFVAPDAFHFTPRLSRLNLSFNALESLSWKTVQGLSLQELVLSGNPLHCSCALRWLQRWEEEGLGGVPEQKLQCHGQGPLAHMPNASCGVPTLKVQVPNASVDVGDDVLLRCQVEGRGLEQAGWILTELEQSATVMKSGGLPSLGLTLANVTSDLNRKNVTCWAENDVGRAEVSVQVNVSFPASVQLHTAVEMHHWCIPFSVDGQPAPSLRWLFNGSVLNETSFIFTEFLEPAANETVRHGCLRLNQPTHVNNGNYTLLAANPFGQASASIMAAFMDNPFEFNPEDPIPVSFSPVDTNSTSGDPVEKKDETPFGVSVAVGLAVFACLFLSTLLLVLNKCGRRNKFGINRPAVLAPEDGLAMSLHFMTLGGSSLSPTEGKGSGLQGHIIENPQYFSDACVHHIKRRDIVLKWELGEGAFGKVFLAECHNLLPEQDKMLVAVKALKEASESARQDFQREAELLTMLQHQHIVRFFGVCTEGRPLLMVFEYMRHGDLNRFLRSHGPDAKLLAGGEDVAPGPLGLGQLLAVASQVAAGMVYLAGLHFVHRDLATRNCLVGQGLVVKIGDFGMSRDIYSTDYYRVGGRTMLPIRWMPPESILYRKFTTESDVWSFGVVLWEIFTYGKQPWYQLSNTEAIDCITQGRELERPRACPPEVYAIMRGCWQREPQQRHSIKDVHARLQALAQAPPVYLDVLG
TrkB, Dog (Canis familiaris, XM_851329) on 293 cells (dog (Canis familiaris)), sequence (Q16620 other isoform, or with tags, fused parts or gaps limits assumed): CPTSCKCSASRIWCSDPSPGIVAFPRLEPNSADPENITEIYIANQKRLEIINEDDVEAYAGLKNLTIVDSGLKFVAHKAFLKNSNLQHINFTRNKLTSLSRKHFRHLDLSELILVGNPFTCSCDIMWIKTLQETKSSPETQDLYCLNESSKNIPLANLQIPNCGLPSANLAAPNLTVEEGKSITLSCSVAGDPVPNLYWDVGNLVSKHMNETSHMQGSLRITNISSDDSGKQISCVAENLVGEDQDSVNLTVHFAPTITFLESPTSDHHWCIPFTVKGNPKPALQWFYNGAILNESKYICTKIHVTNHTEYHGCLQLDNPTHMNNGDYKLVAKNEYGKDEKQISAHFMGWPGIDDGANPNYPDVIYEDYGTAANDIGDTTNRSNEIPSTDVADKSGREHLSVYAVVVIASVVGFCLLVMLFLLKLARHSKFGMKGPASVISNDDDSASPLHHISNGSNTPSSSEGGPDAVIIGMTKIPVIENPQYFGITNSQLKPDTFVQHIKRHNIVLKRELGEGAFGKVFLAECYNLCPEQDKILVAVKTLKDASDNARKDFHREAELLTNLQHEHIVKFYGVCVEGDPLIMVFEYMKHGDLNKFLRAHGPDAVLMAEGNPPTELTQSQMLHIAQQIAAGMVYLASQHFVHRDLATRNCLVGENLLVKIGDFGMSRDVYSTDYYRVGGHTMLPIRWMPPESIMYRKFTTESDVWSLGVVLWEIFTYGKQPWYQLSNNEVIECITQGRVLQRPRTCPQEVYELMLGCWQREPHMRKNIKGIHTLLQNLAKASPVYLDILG
human TrkC (open reading frame from NM_001012338.1) in HEK-293 cells (human), sequence (Q16288 32-839): as the sequence (Q16288 32-839) above

| Binder | EC50, SHC1 recruitment assay [1] [nM] | Fold-increase, SHC1 recruitment assay [1] [fold] | EC50, SHC1 recruitment assay [2] [nM] | Fold-increase, SHC1 recruitment assay [2] [fold] | EC50, SHC1 recruitment assay [3] [nM] | Fold-increase, SHC1 recruitment assay [3] [fold] | Cre-luciferase reporter, fold increase [4] [fold] | EC50 [5] [nM] | EC50 [6] [nM] |
| --- | --- | --- | --- | --- | --- | --- | --- | --- | --- |
| NT3 (R&D267N3) (ligand, UniProt P20783 139-257, looked up, species assumed, Neurotrophin-3) Neurotrophin-3: YAEHKSHRGEYSVCDSESLWVTDKSSAIDIRGHQVTVLGEIKTGNSPVKQYFYETRCKEARPVKNGCRGIDDKHWNSQCKTSQTYVRALTSENNKLVGWRWIRIDTSCVCALSRKIGRT | 0.86 | 10.5 | 0.5 | 7.7 | 1.49 | 9.2 | 2.9 |  |  |
| NT-4 (ligand, UniProt P34130 81-210, looked up, species assumed, Neurotrophin-4) Neurotrophin-4: GVSETAPASRRGELAVCDAVSGWVTDRRTAVDLRGREVEVLGEVPAAGGSPLRQYFFETRCKADNAEEGGPGAGGGGCRGVDRRHWVSECKAKQSYVRALTADAQGRVGWRWIRIDTACVCTLLSRTGRA |  | 1.1 | 0.33 | 6.1 | 0.43 | 9 |  |  |  |

Results, then the binder that gave them:

| EC50, SHC1 recruitment assay [1] [nM] | Fold-increase, SHC1 recruitment assay [1] [fold] | EC50, SHC1 recruitment assay [2] [nM] | Fold-increase, SHC1 recruitment assay [2] [fold] | EC50, SHC1 recruitment assay [3] [nM] | Fold-increase, SHC1 recruitment assay [3] [fold] | Cre-luciferase reporter, fold increase [4] [fold] | EC50 [5] [nM] | EC50 [6] [nM] | Binder |
| --- | --- | --- | --- | --- | --- | --- | --- | --- | --- |
|  |  |  |  |  |  |  | 0.94 | 0.55 | TAM-163 (huTOA-1 v1.0/1.4) (antibody, human IgG1, kappa, V domains shown) VH: EVQLVESGGGLVQPGGSLRLSCAASGYSFTAYFMNWVRQAPGKGLEWVARINPNNGDTFYTQKFKGRFTISRDNAKNSLYLQMNSLRAEDTAVYYCARRDYFGAMDYWGQGTLVTVSS VL: DIQMTQSPSSLSASVGDRVTITCRASQTISNNLHWYQQKPGKAPKLLIKSASLAISGVPSRFSGSGSGTDFTLTISSLQPEDFATYYCQQSNSWPNTFGGGTKVEIKR |
|  |  |  |  |  |  |  |  | 0.65 | mouse TOA-1 antibody (antibody, mouse IgG1, V domains shown) VH: EVQLQQSGPELVKPGASMKISCKTSGYSFTAYFMNWVKQSHGKSLEWIGRINPNNGDTFYTQKFKGKATLTVDKSSNTAHMELLSLTSEDSAIYYCGRRDYFGAMDYWGQGTSVTVSS VL: AIVLIQSPATLSVTPGDSVSLSCRASQTISNNLHWYQQKSHESPRLLIKSASLAISGIPSRFSGSGSGTDFTLSISSVETEDFGMYFCQQSNSWPNTFGGGTKLEIK |
